Data published in paper doi:10.1101/2020.10.25.354415 (bioRxiv, 2020).
Each block holds one binder with its values, some of them ahead of it.

B2: αT-catenin head region (aa1-659) (domain or fragment, M. musculus, UniProt Q65CL1 1-659, looked up)
chain: MSAETPITLNMDTQDLQIQTFTVEKLLEPLIIQVTTLVNCPQNPSNRKKGRSKRARVLLASVEEATWNLLDKGEMIAKEATVLKEELAAALQEVRKESKALKVSAERFTDDPCYLPKREAVVQAARALLAAVTRLLVLADMIDVMCLLQHVSSFQRTFESLKNVSNKSDLQRTYQKLGKELESLDYLAFKRQQDLKSPSQRDEIAGARATLKENSPLLHSICSACLEHSDVASLKASKDTVCEEIQNALDVISNASQGIQNAPAPPEPQAATLGSAFDELENLIVLNPLTVTEEDVRPSLEKRLEAIISGAALLADSSCTRDLHRERIIAECNAIRQALQDLLTEYMSNTGKTERSNTLNTAIVNMSKKTRDLRRQLRKAIIDHISDSFLDTTVPLLVLIEAAKNGRVKEIKDYAAIFHEHTGRLVEVANLACSMSTNEDGIKIVRIAANHLETLCPQIINAALALASRPKSQVVKNTMEMYKRTWEHYIHVLTEAVDDITSIDDFLAVSESHILEDVNKCIIALRDQDADNLDRAAGAIRGRAARVAHIVAGEMDSYEPGAYTEGVMRNVNFLTSTVIPEFVTQVNVALDALSKNSLTALDDNQFVDISKKIYDTIHDIRCSVMMIRTPEELEDVSDLEDDHEVRSHTSIQTEGKTDR

Legend:
[1] = molecular target: T1, αT-catenin M1-M3 (aa260-626) (M. musculus, UniProt Q65CL1 260-626); test: ITC
T1 sequence (looked up): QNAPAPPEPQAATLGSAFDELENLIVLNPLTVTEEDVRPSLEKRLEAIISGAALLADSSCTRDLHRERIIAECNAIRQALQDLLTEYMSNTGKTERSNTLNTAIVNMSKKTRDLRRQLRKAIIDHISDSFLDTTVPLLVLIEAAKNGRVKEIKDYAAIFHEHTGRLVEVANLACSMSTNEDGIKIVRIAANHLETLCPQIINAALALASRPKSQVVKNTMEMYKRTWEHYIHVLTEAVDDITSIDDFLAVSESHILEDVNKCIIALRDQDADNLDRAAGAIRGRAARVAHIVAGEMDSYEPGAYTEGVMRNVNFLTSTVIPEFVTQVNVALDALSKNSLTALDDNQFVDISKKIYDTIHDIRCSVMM

[2] = molecular target: T2, 2I27-αT-catenin M1-M3(aa259-667)-2I27 (UniProt Q65CL1); test: ITC
T2 sequence (Q9UI47 whole entry, species assumed, looked up): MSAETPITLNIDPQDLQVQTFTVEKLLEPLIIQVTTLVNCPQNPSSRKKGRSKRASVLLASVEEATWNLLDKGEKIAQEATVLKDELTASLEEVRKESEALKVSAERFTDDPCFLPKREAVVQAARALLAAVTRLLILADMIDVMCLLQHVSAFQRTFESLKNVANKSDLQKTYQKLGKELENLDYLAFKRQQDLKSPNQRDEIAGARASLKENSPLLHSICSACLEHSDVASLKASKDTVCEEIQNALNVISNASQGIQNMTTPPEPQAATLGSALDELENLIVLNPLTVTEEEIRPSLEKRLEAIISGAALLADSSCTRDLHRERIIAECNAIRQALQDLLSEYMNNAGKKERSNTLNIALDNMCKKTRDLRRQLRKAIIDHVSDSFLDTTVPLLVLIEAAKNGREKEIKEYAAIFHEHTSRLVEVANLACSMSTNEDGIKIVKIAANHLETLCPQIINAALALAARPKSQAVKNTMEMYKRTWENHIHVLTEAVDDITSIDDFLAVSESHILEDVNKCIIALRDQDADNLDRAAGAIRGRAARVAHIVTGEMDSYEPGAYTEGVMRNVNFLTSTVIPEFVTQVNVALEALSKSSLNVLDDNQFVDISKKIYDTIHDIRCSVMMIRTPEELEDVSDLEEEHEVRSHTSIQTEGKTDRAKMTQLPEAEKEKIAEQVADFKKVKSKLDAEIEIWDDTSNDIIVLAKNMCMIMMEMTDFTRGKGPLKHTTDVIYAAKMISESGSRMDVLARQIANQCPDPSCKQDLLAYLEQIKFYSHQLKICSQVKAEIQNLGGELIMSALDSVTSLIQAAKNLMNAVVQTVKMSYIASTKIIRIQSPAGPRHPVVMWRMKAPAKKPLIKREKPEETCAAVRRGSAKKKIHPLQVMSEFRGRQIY

[3] = molecular target: T3, αT-catenin N2-M3 (aa147-626) (M. musculus, UniProt Q65CL1 147-626); test: ITC
T3 sequence (looked up): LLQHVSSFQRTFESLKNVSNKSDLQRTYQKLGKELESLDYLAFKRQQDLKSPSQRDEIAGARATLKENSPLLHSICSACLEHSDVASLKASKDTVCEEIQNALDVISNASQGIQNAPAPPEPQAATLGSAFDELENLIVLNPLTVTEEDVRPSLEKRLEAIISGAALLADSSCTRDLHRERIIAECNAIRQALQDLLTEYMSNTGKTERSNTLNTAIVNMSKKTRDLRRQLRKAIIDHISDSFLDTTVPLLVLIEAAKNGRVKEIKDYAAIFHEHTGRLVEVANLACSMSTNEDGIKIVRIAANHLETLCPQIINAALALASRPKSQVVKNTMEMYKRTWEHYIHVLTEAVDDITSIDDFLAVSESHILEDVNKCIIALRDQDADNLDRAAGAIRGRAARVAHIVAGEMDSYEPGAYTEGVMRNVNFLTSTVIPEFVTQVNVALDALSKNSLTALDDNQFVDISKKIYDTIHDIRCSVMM

[4] = molecular target: B2; test: ITC
[5] = molecular target: T4, αT-catenin head•β-catenin complex (M. musculus, UniProt Q65CL1 1-659; Q02248 1-781); test: ITC
T4 sequence (looked up) 1: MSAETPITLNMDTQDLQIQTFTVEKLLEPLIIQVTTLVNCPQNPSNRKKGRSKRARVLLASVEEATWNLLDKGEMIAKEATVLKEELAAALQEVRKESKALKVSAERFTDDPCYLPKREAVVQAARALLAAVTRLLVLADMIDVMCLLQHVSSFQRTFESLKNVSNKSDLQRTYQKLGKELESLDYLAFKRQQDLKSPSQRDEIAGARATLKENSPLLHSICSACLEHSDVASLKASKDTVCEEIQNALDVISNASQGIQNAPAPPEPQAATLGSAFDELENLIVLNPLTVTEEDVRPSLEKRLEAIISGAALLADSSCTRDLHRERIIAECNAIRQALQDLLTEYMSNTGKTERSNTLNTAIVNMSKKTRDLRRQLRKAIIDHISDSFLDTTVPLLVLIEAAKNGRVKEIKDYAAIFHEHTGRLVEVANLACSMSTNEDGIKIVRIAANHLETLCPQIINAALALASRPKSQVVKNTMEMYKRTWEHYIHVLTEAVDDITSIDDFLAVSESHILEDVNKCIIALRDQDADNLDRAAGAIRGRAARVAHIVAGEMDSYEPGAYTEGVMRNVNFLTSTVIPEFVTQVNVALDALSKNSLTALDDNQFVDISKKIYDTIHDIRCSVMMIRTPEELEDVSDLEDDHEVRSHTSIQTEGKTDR
T4 sequence (looked up) 2: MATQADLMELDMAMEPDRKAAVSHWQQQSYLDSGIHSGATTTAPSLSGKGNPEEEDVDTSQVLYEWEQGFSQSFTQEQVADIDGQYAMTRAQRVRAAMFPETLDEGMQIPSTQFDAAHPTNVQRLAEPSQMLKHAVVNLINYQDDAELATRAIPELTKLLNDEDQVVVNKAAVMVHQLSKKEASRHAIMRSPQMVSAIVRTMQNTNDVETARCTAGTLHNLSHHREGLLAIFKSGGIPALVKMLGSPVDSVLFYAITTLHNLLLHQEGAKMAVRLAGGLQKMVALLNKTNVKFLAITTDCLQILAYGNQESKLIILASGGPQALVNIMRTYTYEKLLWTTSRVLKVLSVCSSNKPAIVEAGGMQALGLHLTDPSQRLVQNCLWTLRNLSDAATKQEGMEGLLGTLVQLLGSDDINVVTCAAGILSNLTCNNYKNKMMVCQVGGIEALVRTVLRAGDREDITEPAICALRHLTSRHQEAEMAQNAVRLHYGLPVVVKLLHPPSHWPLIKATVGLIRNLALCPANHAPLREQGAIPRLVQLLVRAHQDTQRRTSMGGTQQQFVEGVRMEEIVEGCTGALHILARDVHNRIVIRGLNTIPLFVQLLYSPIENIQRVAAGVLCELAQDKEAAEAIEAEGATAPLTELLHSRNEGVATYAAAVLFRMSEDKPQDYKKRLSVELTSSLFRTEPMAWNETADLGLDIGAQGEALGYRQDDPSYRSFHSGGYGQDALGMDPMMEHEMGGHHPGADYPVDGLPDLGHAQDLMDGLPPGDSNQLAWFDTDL

[6] = molecular target: T5, β-catenin•N-cadherin cytoplasmic tail complex (M. musculus | , UniProt Q02248 1-781; P15116 746-906); test: ITC
T5 sequence (looked up) 1: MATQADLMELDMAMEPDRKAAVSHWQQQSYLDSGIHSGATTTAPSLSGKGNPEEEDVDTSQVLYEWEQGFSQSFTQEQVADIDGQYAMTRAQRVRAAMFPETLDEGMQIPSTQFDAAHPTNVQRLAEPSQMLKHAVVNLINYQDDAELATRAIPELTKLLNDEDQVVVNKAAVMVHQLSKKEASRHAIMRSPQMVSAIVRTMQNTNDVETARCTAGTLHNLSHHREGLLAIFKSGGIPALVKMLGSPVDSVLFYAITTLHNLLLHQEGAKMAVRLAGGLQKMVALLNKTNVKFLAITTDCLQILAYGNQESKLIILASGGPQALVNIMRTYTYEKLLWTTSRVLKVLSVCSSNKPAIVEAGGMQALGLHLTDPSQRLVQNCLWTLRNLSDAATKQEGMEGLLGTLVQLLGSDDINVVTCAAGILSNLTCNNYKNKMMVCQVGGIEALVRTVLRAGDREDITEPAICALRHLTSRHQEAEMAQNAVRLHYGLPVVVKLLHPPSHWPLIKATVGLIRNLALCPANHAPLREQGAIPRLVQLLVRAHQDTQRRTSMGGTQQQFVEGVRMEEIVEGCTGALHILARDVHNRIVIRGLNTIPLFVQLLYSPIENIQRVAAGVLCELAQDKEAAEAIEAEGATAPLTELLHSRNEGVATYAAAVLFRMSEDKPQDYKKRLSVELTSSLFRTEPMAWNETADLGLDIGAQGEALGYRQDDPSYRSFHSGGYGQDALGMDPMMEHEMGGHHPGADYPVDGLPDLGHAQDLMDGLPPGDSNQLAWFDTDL
T5 sequence (looked up) 2: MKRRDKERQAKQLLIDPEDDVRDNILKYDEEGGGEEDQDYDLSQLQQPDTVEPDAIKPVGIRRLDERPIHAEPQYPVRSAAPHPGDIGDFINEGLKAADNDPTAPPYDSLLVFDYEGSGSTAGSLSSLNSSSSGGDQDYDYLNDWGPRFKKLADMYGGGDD

β-catenin = molecular target: T6, β-catenin (M. musculus, UniProt Q02248 1-781); test: ITC
T6 sequence (looked up): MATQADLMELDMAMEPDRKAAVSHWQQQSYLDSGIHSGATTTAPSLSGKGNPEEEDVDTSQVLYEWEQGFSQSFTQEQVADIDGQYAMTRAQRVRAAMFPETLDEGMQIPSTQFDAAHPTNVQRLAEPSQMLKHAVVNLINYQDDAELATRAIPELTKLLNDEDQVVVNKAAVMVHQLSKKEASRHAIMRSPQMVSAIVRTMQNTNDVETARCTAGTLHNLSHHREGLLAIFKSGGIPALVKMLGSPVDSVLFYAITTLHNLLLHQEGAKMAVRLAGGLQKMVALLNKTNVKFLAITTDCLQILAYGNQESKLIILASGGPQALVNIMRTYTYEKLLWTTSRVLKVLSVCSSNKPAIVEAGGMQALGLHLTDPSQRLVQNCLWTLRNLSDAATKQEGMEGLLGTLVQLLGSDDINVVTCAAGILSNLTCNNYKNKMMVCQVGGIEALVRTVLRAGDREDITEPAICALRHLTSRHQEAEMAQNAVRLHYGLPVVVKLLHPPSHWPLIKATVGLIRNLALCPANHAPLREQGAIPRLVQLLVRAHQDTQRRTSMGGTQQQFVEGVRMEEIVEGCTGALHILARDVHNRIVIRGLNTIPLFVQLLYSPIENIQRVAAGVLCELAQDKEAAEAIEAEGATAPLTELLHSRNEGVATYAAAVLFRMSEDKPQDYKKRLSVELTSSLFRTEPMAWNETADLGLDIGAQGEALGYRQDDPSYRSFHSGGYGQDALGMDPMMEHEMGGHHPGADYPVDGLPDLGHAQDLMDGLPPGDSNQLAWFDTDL

SEC = molecular target: the molecule itself; test: SEC

Binder: B2
Kd [6]: 5 to 6 nM
Kd (β-catenin): ~250 nM

B3: αT-catenin V94D N1-N2 (domain or fragment, M. musculus, UniProt Q65CL1 1-259, looked up)
chain: MSAETPITLNMDTQDLQIQTFTVEKLLEPLIIQVTTLVNCPQNPSNRKKGRSKRARVLLASVEEATWNLLDKGEMIAKEATVLKEELAAALQEDRKESKALKVSAERFTDDPCYLPKREAVVQAARALLAAVTRLLVLADMIDVMCLLQHVSSFQRTFESLKNVSNKSDLQRTYQKLGKELESLDYLAFKRQQDLKSPSQRDEIAGARATLKENSPLLHSICSACLEHSDVASLKASKDTVCEEIQNALDVISNASQGI
stoichiometry N (SEC): 2

Next, values leading:

Kd [1]: 50 nM
Kd [2]: 250 nM
Kd [3]: 50 nM
Kd [4]: ~5000 nM
Kd [5]: ~3000 nM
B1: vinculin D1 (aa1-259) (domain or fragment, UniProt P12003 1-259, looked up)
chain: MPVFHTRTIESILEPVAQQISHLVIMHEEGEVDGKAIPDLTAPVSAVQAAVSNLVRVGKETVQTTEDQILKRDMPPAFIKVENACTKLVRAAQMLQADPYSVPARDYLIDGSRGILSGTSDLLLTFDEAEVRKIIRVCKGILEYLTVAEVVETMEDLVTYTKNLGPGMTKMAKMIDERQQELTHQEHRVMLVNSMNTVKELLPVLISAMKIFVTTKNTKSQGIEEALKNRNFTVEKMSAEINEIIRVLQLTSWDEDAWA

Kd [6]: 7 nM
B4: αT-catenin N1-N2 (aa1-259) (domain or fragment, M. musculus, UniProt Q65CL1 1-259, looked up)
chain: MSAETPITLNMDTQDLQIQTFTVEKLLEPLIIQVTTLVNCPQNPSNRKKGRSKRARVLLASVEEATWNLLDKGEMIAKEATVLKEELAAALQEVRKESKALKVSAERFTDDPCYLPKREAVVQAARALLAAVTRLLVLADMIDVMCLLQHVSSFQRTFESLKNVSNKSDLQRTYQKLGKELESLDYLAFKRQQDLKSPSQRDEIAGARATLKENSPLLHSICSACLEHSDVASLKASKDTVCEEIQNALDVISNASQGI
